B1: KIAA1161 (parent)
chain: FMPAMQFSIPPWRYDAEVVAIAQK

Drawing on the supplement of paper PMC10567573, this text covers protein stability index for 94 variants.
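Note: lentivirally expressed fusions sorted by FACS into six bins by GFP to DsRed ratio, PSI derived from sequencing read proportions per bin multiplied by bin number.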

Variants of B1 are the subject of this data set. As to the kind of experiment: protein stability index of a GFP-peptide fusion (GPS, HEK-293T) (PSI 1-6); higher = more stable. The settings on record: c terminus: a fixed tail appended.
Turning to FMPAMQISIPPWRYDAEVVAIAQK [F7I], the protein stability index amounted to 2.9. Take FMPAMQASIPPWRYDAEVVAIAQK [F7A]: the protein stability index is 1.97. Next, FMPAMQCSIPPWRYDAEVVAIAQK [F7C]: 2.61. Consider FMPAMQLSIPPWRYDAEVVAIAQK [F7L], for which the protein stability index stood at 1.82. Next, FMPAMQQSIPPWRYDAEVVAIAQK [F7Q]: 2.89. Then FMPAMQMSIPPWRYDAEVVAIAQK [F7M], with 1.91. Then FMPAMQPSIPPWRYDAEVVAIAQK [F7P], with 2.08; and FMPAMQESIPPWRYDAEVVAIAQK [F7E], with 2.34; and FMPAMQSSIPPWRYDAEVVAIAQK [F7S], with 1.6. Regarding FMPAMQGSIPPWRYDAEVVAIAQK [F7G], the protein stability index was found to be 1.61. Then FMPAMQDSIPPWRYDAEVVAIAQK [F7D], with 2.9; and FMPAMQNSIPPWRYDAEVVAIAQK [F7N], with 2.24; and FMPAMQKSIPPWRYDAEVVAIAQK [F7K], with 1.7. For FMPAMQWSIPPWRYDAEVVAIAQK [F7W], the protein stability index was determined as 1.68. Next, FMPAMQHSIPPWRYDAEVVAIAQK [F7H]: 2.01; FMPAMQYSIPPWRYDAEVVAIAQK [F7Y]: 1.7; FMPAMQTSIPPWRYDAEVVAIAQK [F7T]: 2.24.

Regarding FMIAMQFSIPPWRYDAEVVAIAQK [P3I], the protein stability index came out at 2.58. For FMVAMQFSIPPWRYDAEVVAIAQK [P3V], the protein stability index amounted to 2.33. Next, FMKAMQFSIPPWRYDAEVVAIAQK [P3K]: 2.58; FMQAMQFSIPPWRYDAEVVAIAQK [P3Q]: 1.28; FMLAMQFSIPPWRYDAEVVAIAQK [P3L]: 2.22. Then FMFAMQFSIPPWRYDAEVVAIAQK [P3F], with 1.73. Then FMNAMQFSIPPWRYDAEVVAIAQK [P3N], with 2.39; and FMCAMQFSIPPWRYDAEVVAIAQK [P3C], with 2.02; and FMMAMQFSIPPWRYDAEVVAIAQK [P3M], with 4. As to FMAAMQFSIPPWRYDAEVVAIAQK [P3A], the protein stability index was 2.35. For FMPAMSFSIPPWRYDAEVVAIAQK [Q6S], the protein stability index came out at 1.83. Next, FMPAMAFSIPPWRYDAEVVAIAQK [Q6A]: 2.33; FMPAMHFSIPPWRYDAEVVAIAQK [Q6H]: 1.86; FMPAMTFSIPPWRYDAEVVAIAQK [Q6T]: 1.55. As for FMPAMVFSIPPWRYDAEVVAIAQK [Q6V], the protein stability index was determined as 3.24.

For FMPAMRFSIPPWRYDAEVVAIAQK [Q6R], the protein stability index was 1.82.

With FMPAMFFSIPPWRYDAEVVAIAQK [Q6F], the protein stability index was 1.4. Next, FMPAMGFSIPPWRYDAEVVAIAQK [Q6G]: 1.83. Next, FMPAMDFSIPPWRYDAEVVAIAQK [Q6D]: 1.92.

With FMPAMNFSIPPWRYDAEVVAIAQK [Q6N], the protein stability index was 2.66. Take FMPAMKFSIPPWRYDAEVVAIAQK [Q6K]: the protein stability index was 1.93. Then FMPAMEFSIPPWRYDAEVVAIAQK [Q6E], with 1.83; and FMPAMIFSIPPWRYDAEVVAIAQK [Q6I], with 1.34.

Regarding FMPAMYFSIPPWRYDAEVVAIAQK [Q6Y], the protein stability index is 1.34. Next, FKPAMQFSIPPWRYDAEVVAIAQK [M2K]: 2.38; FYPAMQFSIPPWRYDAEVVAIAQK [M2Y]: 1.79. Next, FQPAMQFSIPPWRYDAEVVAIAQK [M2Q]: 2.71; FNPAMQFSIPPWRYDAEVVAIAQK [M2N]: 1.61.

Regarding FSPAMQFSIPPWRYDAEVVAIAQK [M2S], the protein stability index was determined as 1.46. Then FWPAMQFSIPPWRYDAEVVAIAQK [M2W], with 2.09; and FLPAMQFSIPPWRYDAEVVAIAQK [M2L], with 1.46; and FRPAMQFSIPPWRYDAEVVAIAQK [M2R], with 2.45. Then FMPTMQFSIPPWRYDAEVVAIAQK [A4T], with 1.76. Next, FMPMMQFSIPPWRYDAEVVAIAQK [A4M]: 1.86; FMPRMQFSIPPWRYDAEVVAIAQK [A4R]: 2.66; FMPKMQFSIPPWRYDAEVVAIAQK [A4K]: 1.87. In the case of FMPDMQFSIPPWRYDAEVVAIAQK [A4D], the protein stability index stood at 3.44. Next, FMPQMQFSIPPWRYDAEVVAIAQK [A4Q]: 1.97; FMPCMQFSIPPWRYDAEVVAIAQK [A4C]: 1.47. Then FMPEMQFSIPPWRYDAEVVAIAQK [A4E], with 2.34; and FMPLMQFSIPPWRYDAEVVAIAQK [A4L], with 2.09.

Take FMPHMQFSIPPWRYDAEVVAIAQK [A4H]: the protein stability index was found to be 2.68. For the variant FMPPMQFSIPPWRYDAEVVAIAQK [A4P], the protein stability index came out at 2.29. Then FMPNMQFSIPPWRYDAEVVAIAQK [A4N], with 1.56; and FMPGMQFSIPPWRYDAEVVAIAQK [A4G], with 2.34; and FMPAMQFSAPPWRYDAEVVAIAQK [I9A], with 2. Then FMPADQFSIPPWRYDAEVVAIAQK [M5D], with 1.48; and FMPALQFSIPPWRYDAEVVAIAQK [M5L], with 2.25.

Take FMPAEQFSIPPWRYDAEVVAIAQK [M5E]: the protein stability index came out at 2.81. Next, FMPAYQFSIPPWRYDAEVVAIAQK [M5Y]: 1.77; FMPAPQFSIPPWRYDAEVVAIAQK [M5P]: 2.6; FMPAVQFSIPPWRYDAEVVAIAQK [M5V]: 2.23. Then FMPANQFSIPPWRYDAEVVAIAQK [M5N], with 1.9.

On to FMPAAQFSIPPWRYDAEVVAIAQK [M5A], for which the protein stability index amounted to 2.15. Next, FMPAHQFSIPPWRYDAEVVAIAQK [M5H]: 2.71; FMPAGQFSIPPWRYDAEVVAIAQK [M5G]: 3.64; FMPAQQFSIPPWRYDAEVVAIAQK [M5Q]: 2.24. Consider FMPACQFSIPPWRYDAEVVAIAQK [M5C], for which the protein stability index turned out to be 2.11. Then FMPATQFSIPPWRYDAEVVAIAQK [M5T], with 1.68; and FMPAFQFSIPPWRYDAEVVAIAQK [M5F], with 2.25. Then FMPASQFSIPPWRYDAEVVAIAQK [M5S], with 2.24.

Consider FMPAKQFSIPPWRYDAEVVAIAQK [M5K], for which the protein stability index was 1.95. Then FMPAMQFCIPPWRYDAEVVAIAQK [S8C], with 1.07; and FMPAMQFLIPPWRYDAEVVAIAQK [S8L], with 2.05; and FMPAMQFMIPPWRYDAEVVAIAQK [S8M], with 1.71.

For the variant FMPAMQFFIPPWRYDAEVVAIAQK [S8F], the protein stability index was 2.68. Then FMPAMQFGIPPWRYDAEVVAIAQK [S8G], with 1.65. Regarding FMPAMQFTIPPWRYDAEVVAIAQK [S8T], the protein stability index was 1.64. Next, FMPAMQFNIPPWRYDAEVVAIAQK [S8N]: 2.7; FMPAMQFAIPPWRYDAEVVAIAQK [S8A]: 1.69. Next, FMPAMQFPIPPWRYDAEVVAIAQK [S8P]: 2.1; FMPAMQFRIPPWRYDAEVVAIAQK [S8R]: 1.99. Then FMPAMQFQIPPWRYDAEVVAIAQK [S8Q], with 2.11. In the case of FMPAMQFVIPPWRYDAEVVAIAQK [S8V], the protein stability index is 2. Next, FMPAMQFIIPPWRYDAEVVAIAQK [S8I]: 2.81; FMPAMQFDIPPWRYDAEVVAIAQK [S8D]: 1.54; FMPAMQFKIPPWRYDAEVVAIAQK [S8K]: 2.93.
